Reference: article PMC6720645, “Structural and Functional Properties of the Capsid Protein of Dengue and Related Flavivirus” (International Journal of Molecular Sciences, 2019)

Target: the molecule itself
Assay: time-resolved fluorescence anisotropy

B1: Dengue virus serotype 2 capsid protein (natural protein)
chain: MNNQRKKARNTPFNMLKRERNRVSTVQQLTKRFSLGMLQGRGPLKLFMALVAFLRFLTIPPTAGILKRWGTIKKSKAINVLRGFRKEIGRMLNILNRRRR
notes: also called DENV C; C protein
Does B1 bind?
Result: binds
